molecular target: T1, sEGFR-MMB (Homo sapiens, UniProt P00533); assay: Phage ELISA screening of panning hits; format: binding; conditions: phage clone culture supernatant; background typically <200 units
T1 construct: made in house; host or cells: Human Embryonic Kidney cells (293E)
Experimental: Phage Screening. Individual phage clones from selections were amplified and screened for EGFR binding by phage ELISA. To amplify pIII phage for screening, phage eluates from round 3 were diluted appropriately and plated with a lawn of XL-1 Blue to yield isolated single plaques. 24 plaques from each pool were picked and inoculated into a culture of XL-1 Blue host cells. The cultures were shaken at 37° C. for 4.5 hr and the cells were removed by centrifugation. To amplify pIX-displaying phagemid clones, phage eluates were infected into XL-1 Blue and plated onto LB-ampicillin plates. Individual colonies were cultured in 1 ml volumes and rescued with VCS-M13 helper phage. Bacterial cells were removed from phage cultures by centrifugation at (2250×g, 7 min) and the phage-containing supernatant was saved.
The protein solution was removed and wells were rinsed twice with Tris-Buffered Saline containing 0.05% Tween-20 (TBS-T) using a plate washer (Embla). The wells were blocked with Starting Block in TBS for 1 hr at room temperature and rinsed twice with TBS-T. An equal volume of phage supernatant and Starting Block in TBS were incubated in the wells for 1 hr at room temperature, and the wells were rinsed five times with TBS-T. Anti-M13/horseradish peroxidase conjugate (Amersham), diluted 1:5000 in Starting Block in TBS, was added into the wells and incubated for 1 hour at room temperature, and then the wells were rinsed five times with TBS-T. Finally, chemiluminescent peroxidase substrate (Roche) was added to the wells, and chemiluminescence was measured on a Tecan plate reader.
Sequences and ELISA signal (background typically <200 units) are given, along with a consensus sequence, if any. Cysteines that are fixed in the library design are underlined.

Row | Substance | ELISA signal
1 | 10 (YRLFVDESIFFCTRL; S15 library, which displays a random linear 15-mer) [compound 10] | 3078 units
2 | LPDDSLPELICKVRG (S15 library, which displays a random linear 15-mer) [P175] | 6790 units
3 | 38 (YDCMIRADGSLICWC; Peptide family identified from the S19 library) [compound 38] | 1286 units
4 | 12 (VSGILPILVCHPAAT; S15 library, which displays a random linear 15-mer) [compound 12] | 1107 units
5 | 32 (SDCVLFGSKLFCSA; families were identified from the S18 library) [compound 32] | 35327 units
6 | 25 (RDCIIFDKTVYCVI; Peptide family identified from the S18 library) [compound 25] | 17060 units
7 | 21 (LPDLICAVDSGTSGA; S15 library, which displays a random linear 15-mer) [compound 21] | 1161 units
8 | 46 (YICTPSDIDSWYICYL; Peptide family identified from the S20 library) [compound 46] | 6615 units
9 | 40 (AFCRLDFNQWLTCLV; Peptide family identified from the S19 library) [compound 40] | 2581 units
10 | 17 (PIDDESLPVLYCVTS; Random peptide) [compound 17] | 1785 units
11 | 49 (LLCATTSFRDWFVCFT; Peptide family identified from the S20 library) [compound 49] | 4512 units
12 | 41 (CDCREAVSASLVCRY; Peptide family identified from the S19 library) [compound 41] | 3347 units
13 | 11 (ELGLPTLLCWPTDTL; S15 library, which displays a random linear 15-mer) [compound 11] | 9380 units
14 | DACTMVFLWCSL (S16 and S17 hits Phage 177) [P177] | 8655 units
15 | 33 (TDCVRFGETIYCIV; Peptide family identified from the S18 library) [compound 33] | 13291 units
16 | 43 (PTCDSATRRVLTICAD; Peptide family identified from the S20 library) [compound 43] | 5420 units
17 | 16 (STITSLPTLQCWPIL; S15 library, which displays a random linear 15-mer) [compound 16] | 13332 units
18 | 15 (NWFSLPTLLCFPLNP; S15 library, which displays a random linear 15-mer) [compound 15] | 3669 units
19 | 29 (RACITFGKVVYCEV; Peptide family identified from the S18 library) [compound 29] | 30741 units
20 | 23 (AGCIAFVDVVYCAR; Peptide family identified from the S18 library) [compound 23] | 6377 units
21 | 26 (KHCILFEKTVYCAK; Peptide family identified from the S18 library) [compound 26] | 9111 units
22 | 18 (PIFSSLPVLYCTSQL; S15 library, which displays a random linear 15-mer) [compound 18] | 1425 units
23 | 24 (AKCIAFGNSVYCLN; Peptide family identified from the S18 library) [compound 24] | 31524 units
24 | 45 (DSCCSFLTDGTVVCSL; Peptide family identified from the S20 library) [compound 45] | 9544 units
25 | 30 (AYCSFVAGDLVCQV; Peptide family identified from the S18 library) [compound 30] | 19792 units
26 | 14 (HVSLQSLPELICVVS; S15 library, which displays a random linear 15-mer) [compound 14] | 1362 units
